In US20230054634A1 (INSTYTUT BIOLOGII DO WIADCZALNEJ IM MARCELEGO NENCKIEGO …, published 2023):
Where no end group is shown, it is not given here. The star is where a group is joined. Biotin = O=C1N[C@H]2[C@H](CS[C@H]2CCCCC(=O)*)N1

Each binder was assayed against T1, recombinant human GM-CSF protein, Myc-tagged/His-tagged (human, UniProt P04141 18-144) (assay: ELISA, GM-CSF coated).
T1 construct: also called Granulocyte Macrophage Colony Stimulating Factor; CSF2; not shown: Myc tag and His tag from the expression vector
Experimental: (§1) Next, unbound proteins were washed out, then the wells were blocked with 5% BSA (bovine serum albumin) in saline and peptides labeled with N-terminal biotin (purchased from GenScript) were added. […] HRP catalyzes the conversion of chromogenic substrates into colored products. The amount of bound peptide was proportional to the amount of the colored product, and it was measured using a spectrophotometer.

T1 sequence (P04141 18-144): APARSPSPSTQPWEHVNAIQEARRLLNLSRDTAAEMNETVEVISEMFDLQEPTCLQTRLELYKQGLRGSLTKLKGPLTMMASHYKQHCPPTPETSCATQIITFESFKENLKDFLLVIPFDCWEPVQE

Row | Binder | binding result
1 | YQKLSYLDFAYQLD [G7 variant (A10)] | binds
2 | YQKLSYLDFQYQAD (ELISA as for the biotin-labelled peptides; also called Al3) [G7 variant (A13)] | binds
3 | YQKLSYLDFQYQLA (ELISA as for the biotin-labelled peptides) [G7 variant (A14)] | binds
4 | YQKLSYLDFQYALD (ELISA as for the biotin-labelled peptides; also called Al2) [G7 variant (A12)] | binds
5 | YQKLSYLDFQAQLD (ELISA as for the biotin-labelled peptides) [G7 variant (A11)] | binds
6 | KQPRTYQKLSYLDFQYQLD (ELISA as for the biotin-labelled peptides; also called W2) [G7 variant (A16)] | binds

The binders below were run against T1, recombinant human GM-CSF protein, … (assay: ELISA, GM-CSF coated, biotin-labelled peptide).
Experimental: as §1
(SEQ ID NO: 1). […] These peptides, labeled with a N-terminal biotin, were purchased from GenScript.

Row | Binder | binding result
7 | Biotin-DFQYQLD (also called C-terminal (DFQYQLD); short variant of G7) [G7 C-terminal] | no binding
8 | Biotin-YQKLSYL (also called N-terminal (YQKLSYL); short variant of G7) [G7 N-terminal] | no binding
9 | Biotin-LSYLDFQ (also called central (LSYLDFQ); short variant of G7) [G7 central portion] | no binding

Each binder was assayed against T1, recombinant human GM-CSF protein, … (assay: ELISA, GM-CSF coated, biotin-labelled peptide, anti-biotin detection).
Experimental: as §1

Row | Binder | binding result
10 | Biotin-HSVKIRAADVRILN [G14 peptide] | binds
11 | Biotin-NHEVEDEIIWEEFT [G25 peptide] | binds

What follows are binders tested against T1, recombinant human GM-CSF protein, … (assay: SPR (BIAcore 3000), GM-CSF immobilised, peptide injected).

Row | Binder | binding result
12 | Biotin-WSSWSEAIEFGSDD [G16 peptide] | binds
13 | Biotin-IERFNPPSNVTVRC [G3 peptide] | binds
14 | NTTHCLVRWKQPRT [G5 peptide] | binds
15 | VLGFLFKRFLRIQR [G21 peptide] | binds
16 | Biotin-ADVRILNWSSWSEA [G15 peptide] | binds
17 | RWKQPRTYQKLSYL [G6 peptide] | binds
18 | RFLRIQRLFPPVPQ [G22 peptide] | binds

Each binder was assayed against T1, recombinant human GM-CSF protein, … (assay: ELISA on GM-CSF, relative to G7).

Row | Binder | Relative binding
19 | KYQKLSYLDFQYQLD (also called G7K-1 variant) [G7K-1] | 95
20 | YQKLSYLDFQYQKD [G7K13] | 108
21 | YKKLSYLDFQYQLD (also called G7 variant with lysine in position 2) [G7K2] | 2
22 | YQKLSYLDFQKQLD [G7K11] | 108
23 | YQKLSYLDFQYQKDK [G7K15] | 60
